US20260125649A1, “MEDIUM COMPOSITION AND METHOD FOR CULTURING MESENCHYMAL STEM CELLS” (ACADEMIA SINICA, priority 2018, published 2026)

Assays:
MSCs = test: Osteogenesis of MSCs by Alizarin Red S staining; assay type: cell-based, human
Description: Calcium precipitation was measured by Alizarin Red S (ARS) staining to probe the efficiency of osteogenesis. […] Quantification of osteogenesis, as measured by ARS staining, is shown for each group. MSCs were induced by osteogenetic medium and treated with EpEX at indicated doses. The gene expression of RUNX2 was examined by qPCR. […] ARS staining was performed to check the efficiency of osteogenesis. MSCs were pretreated with let-7 inhibitor and then treated with EpEX for 14 days during osteo-induction. ARS staining was performed to check the efficiency of osteogenesis. […] RUNX2 gene expression was measured by qPCR. MSCs were pretreated with let-7 inhibitor and induced by EpEX. RUNX2 gene expression was examined by qPCR. […] Upon EpEX stimulation, phosphorylation of EGFR-STAT3 signaling is induced and subsequently upregulates the level of Lin28 which inhibits let-7. When let-7 is inhibited, the transcription factor, HMGA2, is increased and binds to the promoters of Oct4 and Sox2. The EpEX-mediated increases of Oct4 and Sox2 can promote osteogenesis of MSCs during osteo-induction. […]
After 14 days of osteogenic differentiation, cells were fixed with ice-cold 70% ethanol at −20° C. for 1 h and then washed with PBS. […] For quantification, the cells were incubated with 1 mL of […] buffer for 1 h to extract ARS, and the O.D. at 550 nm was recorded.

HMGA2 = HMGA2 expression and nuclear translocation (Western blotting, immunofluorescence, qPCR); assay type: cell-based, human; conditions: EpEX 3 μg/mL
Description: MSCs were treated with EpEX (3 μg/mL), and the expression of HMGA2 was detected by immunofluorescence staining. […] To detect the binding of HMGA2 to Oct4 promoters, cross-linked DNA was isolated and then amplified with specific primers by qPCR. […] The gene expression of HMGA2 is detected by qPCR. MSCs were treated with let-7 mimetic and then treated with EpEX (3 μg/mL) for 12 h. The protein abundance of HMGA2 was examined by Western blotting.
Total RNA was extracted using TRI reagent (Invitrogen, CA, USA), and 5 μg of total RNA was reverse transcribed using oligo (dT) primer (Fermentas, Glen Burnie, MD, USA) with SuperScript III reverse transcriptase (Invitrogen). Quantitative real time RT-PCR (qPCR) was performed on cDNA using the Light Cycler 480 SYBR Green I Master kit (Roche Applied Science, Indianapolis, IN) and the LightCycler480 System (Roche Applied Science). The gene expression levels of each sample were normalized to the expression levels of glyceraldehyde 3-phosphate dehydrogenase (GAPDH).
Western blotting was performed as previously described (Takahashi et al., 2003). Cells were lysed in lysis buffer (150 mM NaCl, 50 mM Tris-HCl (pH 7.4), 1% Nonidet P-40), containing a protease inhibitor mix (Roche Applied Science). […]

B1: EpEX: extracellular domain of human EpCAM, 265 amino acids in length (SEQ ID NO: 2) (protein, listed as Homo sapiens)
chain: MAPPQVLAFGLLLAAATATFAAAQEECVCENYKLAVNCFVNNNRQCQCTSVGAQNTVICSKLAAKCLVMKAEMNGSKLGRRAKPEGALQNNDGLYDPDCDESGLFKAKQCNGTSMCWCVNTAGVRRTDKDTEITCSERVRTYWIIIELKHKAREKPYDSKSLRTALQKEITTRYQLDPKFITSILYENNVITIDLVQNSSQKTQNDVDIADVAYYFEKDVKGESLFHSKKMDLTVNGEQLDLDPGQTLIYYVDEKAPEFSMQGLK
MSCs; EpEX treatment during osteo-induction, 14 days, ARS staining
  osteogenesis compared to controls: 4 fold
MSCs; EpEX, Day 14, vs non-treated controls
  calcium precipitation (ARS staining): higher
HMGA2
  level of HMGA2: induced
HMGA2; Western blotting and immunofluorescent staining
  HMGA2 nuclear translocation: induced
